Data reported in patent publication US20220305133A1 (CSL INNOVATION, published 2022).
Each block holds one binder with its values, some of them ahead of it.

How the values were obtained:
[1] = molecular target: T1, Factor XIIa (activated Factor XII) (UniProt P00748 20-615, limits assumed); assay: cell-based or functional assay
T1 sequence (looked up): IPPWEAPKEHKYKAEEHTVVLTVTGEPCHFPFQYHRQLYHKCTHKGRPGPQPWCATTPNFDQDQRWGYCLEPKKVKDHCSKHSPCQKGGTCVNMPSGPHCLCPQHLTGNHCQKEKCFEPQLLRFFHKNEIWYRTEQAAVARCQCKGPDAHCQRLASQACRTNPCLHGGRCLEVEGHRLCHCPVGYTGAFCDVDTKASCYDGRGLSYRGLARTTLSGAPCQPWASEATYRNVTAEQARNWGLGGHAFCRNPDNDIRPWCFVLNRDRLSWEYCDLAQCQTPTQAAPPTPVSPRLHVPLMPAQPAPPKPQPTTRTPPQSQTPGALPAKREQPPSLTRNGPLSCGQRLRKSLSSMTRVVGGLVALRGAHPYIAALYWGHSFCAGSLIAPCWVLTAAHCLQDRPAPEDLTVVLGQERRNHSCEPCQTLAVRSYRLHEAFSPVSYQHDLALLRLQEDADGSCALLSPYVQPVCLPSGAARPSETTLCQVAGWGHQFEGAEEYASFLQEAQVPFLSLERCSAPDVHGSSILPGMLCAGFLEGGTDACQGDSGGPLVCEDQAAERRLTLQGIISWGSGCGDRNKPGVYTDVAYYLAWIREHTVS

[2] = molecular target: T2, murine G-CSF receptor (G-CSFR) on mouse NFS-60 cells (mouse, UniProt P40223 26-837); assay: cell-based or functional assay
T2 sequence (looked up): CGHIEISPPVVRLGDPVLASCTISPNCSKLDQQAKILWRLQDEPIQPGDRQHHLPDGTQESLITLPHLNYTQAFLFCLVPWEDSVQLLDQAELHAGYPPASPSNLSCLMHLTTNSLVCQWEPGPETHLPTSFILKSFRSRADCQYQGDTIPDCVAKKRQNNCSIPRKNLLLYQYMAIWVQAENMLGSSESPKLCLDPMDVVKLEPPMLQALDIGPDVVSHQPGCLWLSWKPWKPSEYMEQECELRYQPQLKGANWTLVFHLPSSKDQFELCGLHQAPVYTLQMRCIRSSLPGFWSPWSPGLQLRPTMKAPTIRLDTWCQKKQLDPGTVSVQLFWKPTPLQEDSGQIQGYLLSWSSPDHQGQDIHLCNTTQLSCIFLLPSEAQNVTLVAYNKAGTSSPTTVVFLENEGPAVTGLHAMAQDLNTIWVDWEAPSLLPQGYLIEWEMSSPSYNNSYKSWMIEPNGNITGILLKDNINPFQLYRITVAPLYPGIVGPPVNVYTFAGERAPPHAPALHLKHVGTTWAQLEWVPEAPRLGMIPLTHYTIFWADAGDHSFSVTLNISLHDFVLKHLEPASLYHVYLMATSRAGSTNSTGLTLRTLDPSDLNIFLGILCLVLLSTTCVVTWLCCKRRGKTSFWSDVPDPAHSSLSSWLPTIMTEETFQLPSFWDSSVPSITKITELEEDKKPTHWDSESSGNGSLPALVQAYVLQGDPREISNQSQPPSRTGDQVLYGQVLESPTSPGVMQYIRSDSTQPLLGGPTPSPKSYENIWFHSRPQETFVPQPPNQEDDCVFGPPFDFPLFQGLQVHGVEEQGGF

IC50 (nM), chromogenic assay of Factor XIIa activity [1]: 17.2 nM
B1: ch3F7-mG1L-aFXII (3F7) (antibody, V domains shown)
VH: EVQLLESGGGLVQPGGSLRLSCAASGFTFSKYIMQWVRQAPGKGLEWVSGIRPSGGTTVYADSVKGRFTISRDNSKNTLYLQMNSLRAEDTAVYYCARALPRSGYLISPHYYYYALDVWGQGTTVTVSS
VL: QSELTQPPSASGTPGQRVTISCSGSSSNIGRNYVYWYQQVPGTAPKLLIYSNNQRPSGVPDRFSGSKSGTSASLVISGLRSEDEADYYCAAWDASLRGVFGGGTKLTVLG

IC50 (nM), inhibition of mG-CSF-dependent proliferation of mouse NFS-60 cells, stimulated with 0.1 ng/ml mG-CSF [2]: 0.00104 nM
IC50 (nM), inhibition of mG-CSF-dependent proliferation of mouse NFS-60 cells, stimulated with 1.0 ng/ml mG-CSF [2]: 0.00323 nM
B2: VR81, mouse monoclonal IgG1κ antibody against the extracellular domain of murine G-CSFR (antibody, V domains shown)
VH: EVQLLESGGGLVQPGGSLRLSCAASGFTFSYYAMWWVRQAPGKGLEWVSLIDVSGGVQLYADSVKGRFTISRDNSKNTLYLQMNSLRAEDTAVYYCAKPLIGTRDAFDIWGQGTMVTVSS
VL: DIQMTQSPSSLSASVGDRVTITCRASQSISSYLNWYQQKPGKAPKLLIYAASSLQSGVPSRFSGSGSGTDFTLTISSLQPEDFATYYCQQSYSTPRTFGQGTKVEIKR
